Where a SMILES comes first, the peptide text is derived from it. [ ]: non-standard residue; d: D form. The star is where a group is joined. X1 = CCn1nc(C)cc1C(=O)Nc1nc2cc(C(N)=O)cc(OC)c2n1C/C=C/Cn1c(NC(=O)c2cc(C)nn2CC)nc2cc(C(N)=O)cc(OCCC[N+]3(Cc4ccc(NC(=O)OCCS*)cc4)CCOCC3)c21
Experiments:
[1] = Stability in human plasma; type: in vitro ADME
Protocol: (§1) To establish the stability of pHLIP(Laa)-STINGa and pHLIP(Daa)-STINGa in plasma, pHLIP-STINGa was mixed with single donor human or BALB/c mouse plasma (Innovative Research) at a concentration of 200 μM, and kept in plasma for 0, 2, 4 or 24 hours at 37°C. Plasma proteins were precipitated by methanol (1:5 volume ratio of plasma to methanol) and centrifugated for 10 min at […]. The supernatant was collected and analyzed by HPLC using a Zorbax SB-C18 4.6 × 250 mm, 5 μm column with a gradient from 10% to 75% acetonitrile in water containing 0.05% TFA. Chromatograms were recorded at 220 nm, 280 nm and 320 nm. As controls pHLIP(Laa), pHLIP(Daa), Pys-PAB-STINGa, SH-PAB-STINGa, where Pys-PAB-STINGa was conjugated with a Cys residue, and diABZI (In vivogen) were analyzed for stability in plasma under the same conditions.

human plasma proteins = test: Binding to human plasma proteins (plasma stability study); type: in vitro ADME; details: for amount of product bound to plasma proteins (in brackets): single donor human plasma, 200 μM, 37°C, HPLC
Protocol: as §1

[2] = Stability in mouse plasma; type: in vitro ADME
Protocol: as §1

mouse plasma proteins = test: Binding to mouse plasma proteins (plasma stability study); type: in vitro ADME; details: BALB/c mouse plasma, 200 μM, 37°C, HPLC
Protocol: as §1

[3] = test system: tumor stroma and immune cells within CT26 tumors; test: FACS analysis of uptake by tumor stroma and immune cells within CT26 tumors; details: mouse, in vivo, ip
Protocol: Animal studies on mice were conducted at the Charles River Discovery Service in compliance with the principles and procedures outlined by the National Institutes of Health for the care and use of animals. Uptake of Al647-pHLIP(Laa)-STINGa by tumor cells within CT26 tumors was analyzed by fluorescence activated cell sorting (FACS) analysis. […] When tumors reached 150-250 mm^3 in volume mice were separated into two groups. Eight mice from the treated group #1 received a single IP injection of Al647-pHLIP(Laa)-STINGa (300 µM 100 µl), and five mice from the control group #2 received single IP injection of vehicle (1% DMSO in PBS). 24 hours later all animals were euthanized, and tumors were collected for processing. Tumor stroma and immune cells were identified using the following markers:
• CD4 T cells: CD45^+, CD3^+, CD11b^-, CD4^+, CD8^- • CD8 T cells: CD45^+, CD3^+, CD11b^-, CD4^-, CD8^+ • Treg: CD45^+, CD3^+, CD11b^-, CD4^+, CD25^+, FoxP3^+ • mMDSC: CD45^+, CD3^-, CD11b^+, F4/80^-, Ly6C^high, Ly6G^- • gMDSC: CD45^+, CD3^-, CD11b^+, F4/80^-, Ly6C^low, Ly6G^+ • M1: CD45^+, CD11b^+, F4/80^+, CD206^- • M2: CD45^+, CD11b^+, F4/80^+, CD206^+ • DC: CD45^+, CD11b^+, CD11c^+, MHCII^+, F4/80^- • CAF: CD3^-, CD45^-, CD140b^+
The staining was performed for tumor samples, Fluorescence Minus One (FMO) controls and Single Color Controls (SCC) as indicated below:
The following anti-mouse antibodies were used: CD45-APC-Fire750 clone 30-F11, CD8a-BV650 clone 53-6.7, CD25-BV605 clone PC61, F4/80-PE-Dazzle-594 clone BM8, Ly-6C-FITC clone HK1.4, Ly-6G-BV785 clone 1A8, CD206-BV421 clone C068C2, CD140b-PE clone APB5, CD11c-BV711 clone N418, I-A/I-E-PE/Cy7 clone M5/114.15.2 from BioLegend; CD3e-BUV496 clone 145-2C11, CD4-BUV395 clone GK1.5; CD11b-BUV737 clone M1/70 from BD Biosciences, FoxP3 PerCP-Cy5.5 clone FJK-16s from Thermo Fisher and Live/Dead Aqua-V500 from Life Technologies. The procedure for tumor processing was the following: tumor samples were dissociated according to the manufacturer’s instructions using the gentleMACS™ protocol “Tumor Dissociation Kit”. Samples were filtered through a 70 µm cell strainer and rinsed twice in PBS/2.5% FBS buffer and total sample volumes were measured. Single cell suspensions were prepared in PBS pH 7.4 at 1x10^7 cells/mL and placed into individual wells of a 96-well plate and kept on ice. All incubation steps were carried out protected from light. The washing was performed by spinning the plate at 300x g (or 400x g) for 3 minutes and discarding the supernatant. Live/Dead reagent was added to each sample and incubated at 4°C for 15 minutes followed by washing. […]

CT26 tumor = details: mouse, in vivo
Protocol: (§2) For pharmacokinetics (PK), biodistribution, pH imaging studies and immunohistochemistry, 5x10^4 of CT26 cancer cells were injected SQ in 100 µl of growth medium into the right flank of female Balb/c mice and tumors were grown until they reached 150-200 mm^3 in volume. […] Animals were euthanized at 2, 4, 24, 48, 72 and 96 hours post-injection, blood was collected in K2 EDTA vacutainer blood collection tubes (BD), and necropsy was performed immediately after euthanization. Blood, tumors and major organs (kidney, liver, spleen, pancreas, lung, heart, large and small intestines, bone, muscle, brain) were collected, and imaged ex vivo immediately after necropsy. Blood (150 µl) was imaged in 96-well plate with black bottom and walls. […] The fluorescence at zero-time point was taken as 100% and fluorescence recorded at 2, 4, 24 and 48 hrs p.i. were calculated as a percentage of zero-time point signal. […]
(§3) The in vivo and ex vivo bright field and near-infrared fluorescent imaging was performed using a Stryker 1588 AIM endoscopic system with L10 AIM Light Source (808 nm excitation and collection of light in the range of approximately of 815 to 850 nm), and a 1588 AIM Camera using a 10 mm scope. […] The calculated total fluorescence intensity and total area of each organ were used to calculate the mean organ fluorescence.

[4] = mouse, in vivo, iv
Protocol: as §2, §3

[5] = STINGa on its own; ref [11]; cited from earlier work
CT26 tumors = test: Treatment of small (100 mm^3) CT26 tumors in Balb/c mice; type: in vivo, mouse; details: single injection, same molar dose level as pHLIP-STINGa
Protocol: On day 1, when tumors reached size of 100 mm^3 (“small tumors”) or 400-700 mm^3 (“large tumors”), mice were randomized into groups, body weight was measured and agents including pHLIP(Laa)-STINGa, pHLIP(Daa)-STINGa, pHLIP(Laa), STINGa (diABZI) or vehicle were given as a single intraperitoneal (IP) or intravenous (IV) injection. Vehicle, pHLIP(Laa), STINGa (diABZI) and pHLIP(Laa)-STINGa were given as a single IP injection of 100 μM 300 µl. pHLIP(Daa)-STINGa was given as a single IV injection of 200 μM 150 μl. The compounds were dissolved in DMSO as a stock solution and transferred to 20% PEG400 in saline containing 0.9% sodium chloride (vehicle). The residual DMSO in the final solution injected into animals was less than 2%. Tumor volume and body weight were measured 3 times per week throughout the study. Measurements of tumors were performed using calipers, and the tumor volume (V) was calculated with the formula: […]
where L is the length and W is the width of the measured tumor. Mice were removed from the study and euthanized when the tumor volume was greater than 2000 mm^3.

In the case of `CCn1nc(C)cc1C(=O)Nc1nc2cc(C(N)=O)cc(OC)c2n1C/C=C/Cn1c(NC(=O)c2cc(C)nn2CC)nc2cc(C(N)=O)cc(OCCC[N+]3(Cc4ccc(NC(=O)OCCSSC[C@@H](NC(=O)[C@@H](Cc5c[nH]c6ccccc56)NC(=O)[C@@H](CC(C)C)NC(=O)[C@@H](CC(C)C)NC(=O)[C@@H](CC(=O)O)NC(=O)[C@@H](CC(C)C)NC(=O)[C@@H](CC(C)C)NC(=O)[C@@H](CC(C)C)NC(=O)[C@H](NC(=O)[C@@H](CC(=O)O)NC(=O)[C@H](NC(=O)[C@H]5CCCN5C(=O)[C@@H](Cc5ccccc5)NC(=O)[C@@H](CC(C)C)NC(=O)[C@@H](CC(C)C)NC(=O)[C@@H](CC(=O)O)NC(=O)[C@@H](CC(C)C)NC(=O)[C@@H](Cc5ccc(O)cc5)NC(=O)[C@@H](C)NC(=O)[C@@H](CCCNC(=N)N)NC(=O)[C@@H](Cc5c[nH]c6ccccc56)NC(=O)[C@H]5CCCN5C(=O)[C@@H](CC(N)=O)NC(=O)[C@@H](CC(=O)O)NC(=O)[C@@H](CCC(N)=O)NC(=O)[C@@H](CC(=O)O)NC(=O)[C@@H](C)N)[C@H](C)O)[C@H](C)O)C(=O)NCC(=O)O)cc4)CCOCC3)c21` [pHLIP(Daa)-STINGa] (H-[dA][dD][dQ][dD][dN][dP][dW][dR][dA][dY][dL][dD][dL][dL][dF][dP][dT][dD][dT][dL][dL][dL][dD][dL][dL][dW][dC](X1)G-OH; N-terminus and C-terminus assumed), the metabolised at 24 h, 200 μM ([1]; human plasma, over 24 hours, 37°C (text summary of Table S1), read-out: degradation) is reported as ~10%, the “amount of undegraded product (free fraction)” value ([1]; single donor human plasma, 200 μM, 37°C, 0 h, methanol precipitation, HPLC C18, UV) is reported as 99.4% and the remaining at 2 h, 200 μM ([1]; single donor human plasma, 200 μM, 37°C, 2 h, methanol precipitation, HPLC C18, UV, read-out: amount of undegraded product (free fraction)) is reported as 99.2%. The remaining at 4 h, 200 μM ([1]; single donor human plasma, 200 μM, 37°C, 4 h, methanol precipitation, HPLC C18, UV, read-out: amount of undegraded product (free fraction)) was 97.6%, the remaining at 24 h, 200 μM ([1]; single donor human plasma, 200 μM, 37°C, 24 h, methanol precipitation, HPLC C18, UV, read-out: amount of undegraded product (free fraction)) was 89.6% and the “binding to plasma proteins, in words” value (human plasma proteins; compared with the Laa version, especially human plasma proteins) was “much stronger binding to plasma proteins than the Laa version”. The “amount of product bound to plasma proteins (in brackets)” value (from here on “amount of product bound”) (human plasma proteins; 0 h) was 0%, the “amount of product bound” value (human plasma proteins; 2 h) was 77.2% and the “amount of product bound” value (human plasma proteins; 4 h) was 84.4%. The “amount of product bound” value (human plasma proteins; 24 h) was 87.7%, the “amount of undegraded product (free fraction)” value ([2]; BALB/c mouse plasma, 200 μM, 37°C, 0 h, methanol precipitation, HPLC C18, UV 220/280/320 nm) was 99.4% and the remaining at 2 h, 200 μM ([2]; BALB/c mouse plasma, 200 μM, 37°C, 2 h, methanol precipitation, HPLC C18, UV, read-out: amount of undegraded product (free fraction)) was 90.9%. The remaining at 4 h, 200 μM ([2]; BALB/c mouse plasma, 200 μM, 37°C, 4 h, methanol precipitation, HPLC C18, UV, read-out: amount of undegraded product (free fraction)) was 84.5%, the remaining at 24 h, 200 μM ([2]; BALB/c mouse plasma, 200 μM, 37°C, 24 h, methanol precipitation, HPLC C18, UV, read-out: amount of undegraded product (free fraction)) was 58.2% and the “modified STINGa released from pHLIP” value ([2]; incubated with mouse plasma, 37°C (text summary of Table S1)) was “about 40%”. The “amount of product bound” value (mouse plasma proteins; 0 h) was 0%, the “amount of product bound” value (mouse plasma proteins; 2 h) was 51.7% and the “amount of product bound” value (mouse plasma proteins; 4 h) was 59.6%. For the same compound, the “amount of product bound” value (mouse plasma proteins; 24 h) was 75.9%.
In the case of “AKDDQNPWRAYLDLLFPTDTLLLDLLWCG [Al647-pHLIP-STINGa]”, the “% of cells taken Al647-pHLIP-STINGa: CAFs” value [3] is reported as 74%, the “% of cells taken Al647-pHLIP-STINGa: CD8 T-cells” value [3] is reported as 24% and the “% of cells taken Al647-pHLIP-STINGa: DCs” value [3] is reported as 52%. The “% of cells taken Al647-pHLIP-STINGa: TAMs (CD206+)” value [3] was 71%.
With “AKDDQNPWRAYLDLLFPTDTLLLDLLWCG [ICG-pHLIP-STINGa]” the “persistence of fluorescence signal in the tumor” value (CT26 tumor) was 8 days and the half-life in blood [4] was 8.2 h.
In the case of diABZI [STINGa], the half-life [5] is given as 1.4 h and the “time by which all animals developed tumors” value (CT26 tumors) is given as ≤ 35 days p.i.

Source: paper PMC9622777, “Eradication of tumors and development of anti-cancer immunity using STINGa targeted by pHLIP” (Frontiers in Oncology, 2022)
